From patent US7741277 (AETERNA ZENTARIS, dated 2010)
Values joined by “and” are separate entries in the source; they are usually repeats but may differ in a detail not shown here. Identical values can stand only once.

T1: human GnRH receptor (hGnRH-R) (human, UniProt P30968 1-328)
T1 sequence (looked up): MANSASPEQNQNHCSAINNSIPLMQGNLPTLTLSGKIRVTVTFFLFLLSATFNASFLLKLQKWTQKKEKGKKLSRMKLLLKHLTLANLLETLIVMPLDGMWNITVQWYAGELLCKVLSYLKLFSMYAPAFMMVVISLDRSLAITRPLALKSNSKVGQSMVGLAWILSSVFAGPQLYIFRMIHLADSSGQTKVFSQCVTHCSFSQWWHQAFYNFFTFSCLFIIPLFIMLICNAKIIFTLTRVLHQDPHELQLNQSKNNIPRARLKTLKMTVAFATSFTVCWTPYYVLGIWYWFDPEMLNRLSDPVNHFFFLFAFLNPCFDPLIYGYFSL

B1: disorazole E1 mono hemi succinyl [D-Lys^6]LHRH, both regio-isomers (13) & (14) (peptide)
peptide: XHWSYKLRPG
modifications: Glp (pyroglutamate) at 1; D-Lys at 6, joined through a succinyl linker to disorazole E1; C-terminal amide
B2: disorazole Z mono hemi succinyl [D-Lys^6]LHRH (16) (peptide)
peptide: XHWSYKLRPG
modifications: Glp (pyroglutamate) at 1; D-Lys at 6, joined through a succinyl linker to disorazole Z; C-terminal amide
B3: disorazole Z bis hemi glutaryl [D-Lys^6]LHRH (17) (peptide)
peptide: XHWSYKLRPG
modifications: Glp (pyroglutamate) at 1; D-Lys at 6, joined through a glutaryl linker to disorazole Z; C-terminal amide

Molecular target: T1, human GnRH receptor (hGnRH-R)
Test: cell-based or functional assay

Row | Molecule | proliferation status after 96 h (vital cells, untreated control = 100%), hGnRH-R positive cell line 5C6, 100 nM (% of untreated control) | proliferation status after 96 h (vital cells, untreated control = 100%), hGnRH-R positive cell line 5C6, 0.1 nM | proliferation status after 96 h (vital cells, untreated control = 100%), hGnRH-R positive cell line 5C6, 1 nM | proliferation status after 96 h (vital cells, untreated control = 100%), hGnRH-R positive cell line 5C6, 10 nM | proliferation status after 96 h (vital cells, untreated control = 100%), hGnRH-R positive cell line 5C6, 100 nM
1 | AN-152 (peptide) | 42.1 and 43.9 |  |  |  | 
2 | B1 |  | 85.9 % of untreated control | 80.8 % of untreated control | 45.9 % of untreated control | 14.6 % of untreated control
3 | B2 |  | 83.8 % of untreated control | 80.9 % of untreated control | 54.1 % of untreated control | 21.9 % of untreated control
4 | B3 |  | 95.5 % of untreated control | 85.9 % of untreated control | 58.5 % of untreated control | 41.7 % of untreated control
